Substitutions are numbered along the chain they refer to.

Data set [1] deals with T1, HrAgo1 (Candidatus Harpocratesius repetitus …, UniProt A0AAT8XUE3 1-817).
T1 sequence: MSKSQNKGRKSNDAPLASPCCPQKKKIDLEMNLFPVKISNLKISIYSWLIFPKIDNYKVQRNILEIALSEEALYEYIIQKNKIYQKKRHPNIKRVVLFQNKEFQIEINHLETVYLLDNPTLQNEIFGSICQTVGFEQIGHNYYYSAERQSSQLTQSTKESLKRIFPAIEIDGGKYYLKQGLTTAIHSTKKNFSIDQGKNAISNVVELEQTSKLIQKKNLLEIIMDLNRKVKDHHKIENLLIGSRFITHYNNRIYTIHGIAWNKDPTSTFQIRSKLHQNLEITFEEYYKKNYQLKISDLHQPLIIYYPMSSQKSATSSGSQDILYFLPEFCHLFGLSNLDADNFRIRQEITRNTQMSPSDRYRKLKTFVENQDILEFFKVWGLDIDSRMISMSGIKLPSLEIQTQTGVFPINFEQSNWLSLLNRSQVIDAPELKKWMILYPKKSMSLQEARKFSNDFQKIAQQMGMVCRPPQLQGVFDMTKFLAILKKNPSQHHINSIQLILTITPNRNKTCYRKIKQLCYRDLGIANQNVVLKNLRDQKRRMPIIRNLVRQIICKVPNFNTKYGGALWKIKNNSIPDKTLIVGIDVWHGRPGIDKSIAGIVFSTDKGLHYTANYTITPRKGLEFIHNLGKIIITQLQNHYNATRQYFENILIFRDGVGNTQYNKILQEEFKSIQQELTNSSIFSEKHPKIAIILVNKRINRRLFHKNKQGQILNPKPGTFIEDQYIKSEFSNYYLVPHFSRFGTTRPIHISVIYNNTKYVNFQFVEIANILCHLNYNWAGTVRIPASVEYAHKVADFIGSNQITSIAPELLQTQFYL
Nature of the data set: single-molecule FRET; 500 mM NaCl; majority dwell > 200 s, plus transient sub-population; smFRET: 50 mM Tris-HCl pH 8.0, 500 mM NaCl (50 mM for EfPiwi), 1 mM Trolox, glucose oxidase/catalase, 22 C; cryo-EM: 5 mM HEPES pH 7.5, 250 mM KCl, 5 mM MgCl2. The conditions noted are these: protein: recombinant, tags: His-MBP removed by TEV, label: Cy5 guide, Cy3 target, 3' biotin target.

Data set [2] addresses T1, HrAgo1. Nature of the data set: single-molecule FRET; 500 mM NaCl; stable binding, dwell > 200 s; smFRET: 50 mM Tris-HCl pH 8.0, 500 mM NaCl (50 mM for EfPiwi), 1 mM Trolox, glucose oxidase/catalase, 22 C; cryo-EM: 5 mM HEPES pH 7.5, 250 mM KCl, 5 mM MgCl2. The conditions noted are these: protein: recombinant; tags: His-MBP removed by TEV; label: Cy5 guide, Cy3 target, 3' biotin target; guide nt 2-16 pair.

Data set [3] concerns the target T1, HrAgo1. Nature of the data set: cryo-EM structure; 5 mM MgCl2; smFRET: 50 mM Tris-HCl pH 8.0, 500 mM NaCl (50 mM for EfPiwi), 1 mM Trolox, glucose oxidase/catalase, 22 C; cryo-EM: 5 mM HEPES pH 7.5, 250 mM KCl, 5 mM MgCl2. As to conditions: protein: recombinant; tags: His-MBP removed by TEV; single strand; only 6 nt modelled.

B1: guide N6 / target N6 (dsRNA)
RNA 1: UGAGGUAUUUUUUUUUUUUUUU
RNA 2: UUUUUUUUUUUUUUUUUUUCUACCUCUUUUUUUUUUUUUUUUUUUUUUUUUUUUUUU
modifications: guide 5' phosphate; 5-LC-N-U at guide nt 9 and target nt 11
As for B1, the binding result with HrAgo1 [1] (guide nt 2-7 pair) is recorded as “binds”.

B2: guide N15 / target N15 (dsRNA)
RNA 1: UGAGGUAGUAGGUUGUUUUUUU
RNA 2: B1 RNA 2 with U12A, U13C, U14A, U15A, U16C, U17C, U19A
modifications: guide 5' phosphate; 5-LC-N-U at guide nt 9 and target nt 11
Turning to B2, in the data set with HrAgo1 [2], the binding result was “binds”.

B3: guide N8 / target N8 (dsRNA)
RNA 1: UGAGGUAGUUUUUUUUUUUUUU
RNA 2: B1 RNA 2 with U19A
modifications: guide 5' phosphate; 5-LC-N-U at guide nt 9 and target nt 11
Regarding B3, the binding result in the data set with HrAgo1 [1] (guide nt 2-9 pair) was “binds”.

B4: let-7a guide RNA (cryo-EM) (ssRNA)
RNA: UGAGGUAGUAGGUUGUAUAGU
modifications: 5' phosphate
B4: the binding result with HrAgo1 [3] was “binds”.

For the origin of these results see article PMC11217426, “RNA-guided RNA silencing by an Asgard archaeal Argonaute”.
